In US11180762B2, “Methods and compositions for the treatment of cancer” (CHILDREN'S MEDICAL CENTER CORPORATION, priority 2014, dated 2021):
“Also recorded” adds a separate entry of the source.

Legend:
basal-A TNBCs = test: Bortezomib on TNBC cell lines in vitro; format: cell-based, human
basal-A TNBC tumors = conditions: mouse, in vivo
Excerpt: We next tested whether proteasome inhibition inhibited the growth of basal-like TNBC tumors in mice.

breast cancer cell lines [1] = test: Colony formation assay; format: cell-based, human; conditions: AsiC 4 uM, paclitaxel 100 nM
Procedure: (§1) For colony formation assay, 1,000 viable cells were treated for 6 h in round bottom 96-well plates and then transferred to 10-cm plates in serum-containing medium. Medium was replaced every 3 d. After 8-14 d, cells were fixed in methanol (−20 C) and stained with crystal violet. For sphere formation assay, 1,000/ml viable cells were treated for 6 h in round bottom 96-well plates and then cultured in suspension in serum-free DMEM/F12 1:1 (Invitrogen), supplemented with EGF (20 ng/ml, BD Biosciences), B27 (1:50, Invitrogen), 0.4% bovine serum albumin (Sigma) and 4 μg/ml insulin (Sigma). Spheres were counted after 1 or 2 weeks.

breast cancer cell lines [2] = test: Sphere (mammosphere) formation assay; format: cell-based, human
Procedure: as §1

AKT1 = AKT1 mRNA and protein knockdown in breast cancer cell lines; format: cell-based, human; parameters: AKT1 protein silencing by flow cytometry: dose or concentration left out as unconfirmed; conditions: for AKT1 mRNA and protein knockdown across cell lines: basal-A, luminal, basal-B lines, fibroblasts
Procedure: (§2) For uptake and silencing treatment, cells were plated at low density (10,000 cells/well in 96-well plates) and treated immediately. All AsiC and siRNA treatments were performed in either OptiMEM or WIT medium. Cell viability was assessed by CellTiter-Glo (Promega) or by Trypan-Blue staining in 96-well plates.
For flow cytometry, cells were stained as previously described (Yu, F. et al (2007). let-7 Regulates Self Renewal and Tumorigenicity of Breast Cancer Cells. Cell 131, 1109-1123. ), briefly, direct immunostaining of EpCAM and AKT1 was performed using 1:50 dilutions of hAb for 30-60 minutes at 4° C. (BioLegend/BD). Cells were stained in PBS containing 0.5% FCS, 1 mM EDTA, and 25 mM HEPES. Samples were washed twice in the same buffer. Data was acquired using FACS-Canto II (BD Biosciences). Analyses were performed in triplicate and 10,000 gated events/sample were counted. All data analysis was performed using FlowJo (Treestar Inc.).
qRT-PCR analysis was performed as described (Petrocca, F., et al. (2008). E2F1-regulated microRNAs impair TGFbeta-dependent cell-cycle arrest and apoptosis in gastric cancer. Cancer Cell 13, 272-286). Briefly, total RNA was extracted with Trizol (Invitrogen) and cDNA prepared from 1000 ng total RNA using Thermoscript RT kit (Invitrogen) as per the […] (Applied Biosystems) and a BioRad C1000 Thermal Cycler (Biorad). Relative CT values were normalized to GAPDH and converted to a linear scale.

[3] = system: basal-A, luminal and basal-B breast cancer cell lines; test: Cell proliferation/viability by CellTiter-Glo in 10 breast cancer cell lines; format: cell-based, human
Excerpt: To explore whether EpCAM-AsiCs could be used as anti-tumor agents in breast cancer, we examined by CellTiterGlo assay the effect of AsiCs directed against PLK1, a kinase required for mitosis, on survival of 10 breast cancer cell lines that included 5 basal-A TNBCs, 2 luminal cell lines, and 3 basal-B TNBCs. […] The anti-proliferative effect strongly correlated with EpCAM expression (FIG. 2B). The reduction in viable EpCAM+ cells after knockdown was due to induction of apoptosis, assessed by annexin V-propidium iodide staining and caspase activation (data not shown). To determine whether ligation of the EpCAM aptamer contributed to the anti-proliferative effect of the EpCAM-AsiC, we compared survival of cells that were treated with the PLK1 EpCAM-AsiC with cells treated with the aptamer on its own (FIG. 2C). […] Thus the PLK1 EpCAM-AsiC asserts its specific anti-tumor effect on EpCAM+ breast cancer cells by gene knockdown.
as §2

MB468-luc tumors = test: Tumor inhibition, EpCAM+ MB468-luc xenograft; format: in vivo, nude mice; conditions: 5 mg/kg sc every 3 d (72 h) for 2 wks
Procedure: (§3) For tumor inhibition studies, MB468-luc (5×10^6) and MB231-luc-mCherry (5×10^5) cells trypsinized with Tryple Express (Invitrogen), resuspended in a 1:1 WIT-Matrigel solution and injected subcutaneously in the flank of 8-week old female Nu/J mice (Stock #002019, Jackson Laboratories). Tumors size was analyzed daily using the IVIS Spectra, after 5 days tumors were clearly visible. […] Mice were treated every 72 h for 14 days.

Argonaute (AGO) = test: PLK1 siRNA association with Argonaute (pan-AGO immunoprecipitation, qRT-PCR); format: cell-based, human; conditions: MDA-MB-468 cells treated 2 days
Excerpt: MB-468 cells, treated with PLK1 EPCAM-AsiC or siRNA for 2 days, were lysed, and cell lysates were immunoprecipitated with pan-AGO antibody or IgG isotype control. The amount of PLK1 siRNA in the immunoprecipitates was quantified by Taqman qRT-PCR, presented as log2 mean with SEM, relative to miR-16. **, P<0.01 by Student's t-test relative to siRNA-treated cells. ND, not detectable. […] This is likely because most RNAs that are taken up by cells are not released from endosomes to the cytosol (A. Wittrup et al., Visualizing lipid-formulated siRNA release from endosomes and target gene knockdown. Nature Biotechnology 2015, in press).
Uptake was clearly detected at 22 hr, but increased greatly after 43 hr. To test whether EpCAM-AsiCs are specifically taken up by EpCAM bright cell lines, the 3′ end of the antisense strand of the AsiC was fluorescently labeled. […] Previous studies have shown that AsiCs are processed within cells by Dicer to release the siRNA from the aptamer (10, 12, 15).

[4] = system: eGFP expression in BPLER and BPE cells; test: eGFP knockdown in GFP-expressing BPLER and BPE cells; format: cell-based, human; conditions: AsiC 4 μM without lipid, siRNA 100 nM with Dharmafect, 72 hours
Procedure: FIG. 21A depicts the design of EpCAM-AsiC, containing an EpCAM aptamer and a PLK1 siRNA (sense strand disclosed as SEQ ID NO: 1 and antisense strand disclosed as SEQ ID NO: 2). […] EpCAM-AsiC targeting GFP was Alexa647 or Cy3 labeled at the 3′ end of the antisense siRNA strand and incubated with BPLER and BPE cells. Uptake was assessed 24 hours later by flow cytometry (FIG. 21C). Data are representative of 3 independent experiments. Cy3 and Alexa647-labeled EpCAM-AsiC was taken up by MB468 and BPLER (EpCAM+ cells) respectively and not by BPE (EpCAM−). MFI of each peak is shown (mock, gray). FIG. 21D depicts graphs of experiments in which, to test for gene silencing, BPLER and BPE were treated with EpCAM-AsiC targeting GFP (4 μM) and compared to Transfection controls using Dharmafect and GFP-siRNA (100 nM). Knockdown was assessed by flow cytometry 72 hours after incubation. Controls were mock and Dhrmafect only treatment (lipid). (n=4).
as §2
Cells were transfected with Dharmafect I per the manufacturer's protocol. See FIG. 9 for all siRNA sequences.

MB468-luc cells = test: Tumor initiation by ex vivo treated EpCAM+ cells in nude mice; conditions: cells treated ex vivo 24 h/overnight, then implanted; imaged 20 days; listed as EpCAM-AsiC targeting GFP
Procedure: For tumor initiation studies 8-week old female Nu/J mice (Stock #002019, Jackson Laboratories) were injected subcutaneously with MB468-luc (5×10^6) cells pretreated for 24 h with EpCAM-AsiC-GFP, EpCAM-AsiC-PLK1 or untreated. Cells were trypsinized with Tryple Express (Invitrogen), resuspended in WIT media and injected subcutaneously in the flank. Following intraperitoneal injection of 150 mg/kg D-luciferin (Caliper Life Sciences) luminescent images of the whole body were taken every 5 days for a total of 20 days using the IVIS Spectra system (Caliper Life Sciences).

MB231-luc-mCherry tumors = test: Tumor inhibition, EpCAM− MB231-luc-mCherry xenograft; format: in vivo, nude mice; conditions: 5 mg/kg sc every 3 d (72 h) for 2 wks
Procedure: as §3

Molecule: CC(C)C[C@H](NC(=O)[C@H](Cc1ccccc1)NC(=O)c1cnccn1)B(O)O [bortezomib]
- killing and T-IC function (colony, mammosphere) (basal-A TNBCs): both killed basal-A TNBCs and also blocked T-IC function
- viable cells after treatment (basal-A TNBCs; 24 hr): ~40%
- penetration into solid tumors (basal-A TNBC tumors): does not penetrate well into solid tumors

Molecule: CC(=O)O[C@H]1C(=O)[C@@]2(C)[C@H]([C@H](OC(=O)c3ccccc3)[C@]3(O)C[C@H](OC(=O)[C@H](O)[C@@H](NC(=O)c4ccccc4)c4ccccc4)C(C)=C1C3(C)C)[C@]1(OC(C)=O)CO[C@@H]1C[C@@H]2O [paclitaxel, reference compound]
- colony formation, EpCAM+ basal-A and luminal lines (breast cancer cell lines [1]): resistant clones emerged
- colony formation, EpCAM− basal-B lines (breast cancer cell lines [1]): reducing colony formation but still resistant clones invariably emerged
- colony formation, cell lines tested (breast cancer cell lines [1]): decreased colony formation in all cells lines
- sphere/mammosphere formation, cell lines tested (breast cancer cell lines [2]): reduced sphere-formation in all

Molecule: AKT1 siRNA: AKT1 siRNA, sense SEQ ID NO: 29, antisense SEQ ID NO: 30 (sense GCUGGAGAACCUCAUGCUG; antisense CAGCAUGAGGUUCUCCAGC; listed as RNA, chemistry not given here) [reference compound]
- AKT1 mRNA and protein knockdown across cell lines (AKT1): comparably knocked down expression in all the cell lines studied

Molecule: PLK1 siRNA: PLK1 siRNA, sense SEQ ID NO: 31, antisense SEQ ID NO: 32 (sense UGAAGAAGAUCACCCUCCUUA; antisense UAAGGAGGGUGAUCUUCUUCA; listed as RNA, chemistry not given here) [reference compound]
- cell proliferation/viability, all cell lines tested [3]: suppressed the growth of all the cell lines
- growth of EpCAM+ MB468 tumors (MB468-luc tumors): continued to grow without significant change; also recorded: neither of which had any anti-tumor activity
- PLK1 siRNA bound to Ago / in the RISC (Argonaute (AGO)): No PLK1 siRNA bound to Ago

B1: GFP EpCAM-AsiC: EpCAM aptamer-GFP siRNA chimera, sense SEQ ID NO: 25, antisense SEQ ID NO: 26 (nucleic acid)
sense: GCGACUGGUUACCCGGUCGUUUGGCUACGUCCAGGAGCGCATT
antisense: UGCGCUCCUGGACGUAGCCTT
modifications: DNA at T, 2'-fluoro at CU, RNA at AG, backbone not given here; EpCAM aptamer fused to sense strand
- eGFP knockdown, BPLER vs BPE ([4]; listed as EpCAM-AsiCs targeting GFP): selectively knocked down expression in BPLER
- eGFP knockdown, BPLER vs BPE ([4]; listed as eGFP EpCAM-AsiCs): selectively knocked down expression only in BPLER
- AKT1 mRNA and protein knockdown across cell lines (AKT1; listed as AsiCs targeting eGFP): had no effect on AKT1 levels
- AKT1 mRNA and protein knockdown across cell lines (AKT1; listed as EpCAM-AsiC targeting GFP): did not effect any of the cell lines
- colony formation, cell lines tested (breast cancer cell lines [1]): had no effect
- sphere/mammosphere formation, cell lines tested (breast cancer cell lines [2]): had no effect
- tumor initiation, EpCAM+ cells (MB468-luc cells): displayed tumors after 5 days; also recorded: displayed increase in tumor initiation
- growth of EpCAM+ MB468 tumors (MB468-luc tumors; listed as GFP AsiC): did not increase in size as much as control untreated mice
- growth of EpCAM+ MB468 tumors (MB468-luc tumors; listed as eGFP-targeting AsiCs): continued to grow
- growth of EpCAM− MB231 tumors (MB231-luc-mCherry tumors; listed as EpCAM-Asic targeting GFP): suppress tumor growth in both EpCAM+ and EpCAM-tumors but didn't eliminate tumors
- growth of EpCAM− MB231 tumors (MB231-luc-mCherry tumors; listed as eGFP-targeting AsiCs): continued to grow

B2: AKT1 EpCAM-AsiC: EpCAM aptamer-AKT1 siRNA chimera, sense SEQ ID NO: 23, antisense SEQ ID NO: 24 (nucleic acid)
sense: GCGACUGGUUACCCGGUCGUUGCUGGAGAACCUCAUGCUGTT
antisense: CAGCAUGAGGUUCUCCAGCTT
modifications: chemistry not fully specified
- AKT1 protein silencing by flow cytometry (AKT1; EpCAM-AsiC for 5 days): specific AKT1 protein silencing
- AKT1 mRNA and protein knockdown across cell lines (AKT1; listed as EpCAM-AsiC targeting AKT1): decreased AKT1 mRNA and protein levels
- AKT1 mRNA and protein knockdown across cell lines (AKT1; listed as EpCAM-AsiCs targeting AKT1): only in EpCAM^bright luminal and basal-A TNBCs
